The source of these data is PMC10574248.

The test system of the data set is RBP7910 (Trypanosoma brucei). Nature of the data set: MST. The conditions noted are these: RBB50: 20 mM HEPES pH 7.6, 150 mM KCl, 5 mM MgCl2, 100 ug/mL BSA, 10% glycerol, 50 nM oligo, room temperature 30-60 min, errors are 68% confidence.
By Kd is commonly meant the concentration at which binding is half-saturated. A high value points to weaker binding. The sequence “GGTGGGTTATCGCGCGCGCGCGATCAACTGGG (double strand) [d(GC)6 ds]” had a Kd of 0.444 µM.

“GGTGGGTTATCGCGCGCGCGCGATCAACTGGG [d(GC)6 ss]” gave a Kd of 0.022 µM.

The sequence “GGUGGGUUAUAUUCAUUCAUUCAUCAACUGGG / CCCAGUUGAUGAAUGAAUGAAUAUAACCCACC [r(AUUC)3 ds]” yielded a Kd of 1.23 µM.

With “GGUGGGUUAUAUUCAUUCAUUCAUCAACUGGG [r(AUUC)3 ss]”, the Kd is 0.272 µM.

Consider “GGUGGGUUAUAUUUAUUUAUUUAUUUAUCAACUGGG / CCCAGUUGAUAAAUAAAUAAAUAAAUAUAACCCACC [r(AUUU)4 ds]”, for which the Kd was found to be 1.88 µM.

In turn, “GGUGGGUUAUAUUUAUUUAUUUAUUUAUCAACUGGG [r(AUUU)4 ss]” had a Kd of 0.18 µM.

The sequence “GGUGGGUUAUCGCGCGCGCGCGAUCAACUGGG / CCCAGUUGAUCGCGCGCGCGCGAUAACCCACC [r(GC)6 ds]” yielded a dissociation constant (Kd) of 3.22 µM.

In the case of “GGUGGGUUAUCGCGCGCGCGCGAUCAACUGGG [r(GC)6 ss]”, the dissociation constant (Kd) was found to be 2.03 µM.

“GGUGGGUUAUUAUAUAUAUAUAAUCAACUGGG / CCCAGUUGAUUAUAUAUAUAUAAUAACCCACC [r(UA)6 ds]” came in with a Kd of 1.34 µM.

Sequence “GGUGGGUUAUUAUAUAUAUAUAAUCAACUGGG [r(UA)6 ss]” returned a Kd of 0.88 µM.

In turn, “GGUGGGUUAUUUUUUUUUUUUUAUCAACUGGG / CCCAGUUGAUAAAAAAAAAAAAAUAACCCACC [r(UUUU)3 ds]” had a Kd of 1.71 µM.

“GGUGGGUUAUUUUUUUUUUUUUAUCAACUGGG [r(UUUU)3 ss]” showed a Kd of 0.147 µM.
